Results as given in paper PMC4280530 (2014).

How the values were obtained:
[1] = molecular target: T1, Bacillus thuringiensis (Bt) Cry1Ac toxin (Bacillus thuringiensis, UniProt P05068 1-1178); test: SPR
[2] = molecular target: T1, Bacillus thuringiensis (Bt) Cry1Ac toxin; test: SPR; remark: listed apart in the source

T1 sequence (P05068 whole entry): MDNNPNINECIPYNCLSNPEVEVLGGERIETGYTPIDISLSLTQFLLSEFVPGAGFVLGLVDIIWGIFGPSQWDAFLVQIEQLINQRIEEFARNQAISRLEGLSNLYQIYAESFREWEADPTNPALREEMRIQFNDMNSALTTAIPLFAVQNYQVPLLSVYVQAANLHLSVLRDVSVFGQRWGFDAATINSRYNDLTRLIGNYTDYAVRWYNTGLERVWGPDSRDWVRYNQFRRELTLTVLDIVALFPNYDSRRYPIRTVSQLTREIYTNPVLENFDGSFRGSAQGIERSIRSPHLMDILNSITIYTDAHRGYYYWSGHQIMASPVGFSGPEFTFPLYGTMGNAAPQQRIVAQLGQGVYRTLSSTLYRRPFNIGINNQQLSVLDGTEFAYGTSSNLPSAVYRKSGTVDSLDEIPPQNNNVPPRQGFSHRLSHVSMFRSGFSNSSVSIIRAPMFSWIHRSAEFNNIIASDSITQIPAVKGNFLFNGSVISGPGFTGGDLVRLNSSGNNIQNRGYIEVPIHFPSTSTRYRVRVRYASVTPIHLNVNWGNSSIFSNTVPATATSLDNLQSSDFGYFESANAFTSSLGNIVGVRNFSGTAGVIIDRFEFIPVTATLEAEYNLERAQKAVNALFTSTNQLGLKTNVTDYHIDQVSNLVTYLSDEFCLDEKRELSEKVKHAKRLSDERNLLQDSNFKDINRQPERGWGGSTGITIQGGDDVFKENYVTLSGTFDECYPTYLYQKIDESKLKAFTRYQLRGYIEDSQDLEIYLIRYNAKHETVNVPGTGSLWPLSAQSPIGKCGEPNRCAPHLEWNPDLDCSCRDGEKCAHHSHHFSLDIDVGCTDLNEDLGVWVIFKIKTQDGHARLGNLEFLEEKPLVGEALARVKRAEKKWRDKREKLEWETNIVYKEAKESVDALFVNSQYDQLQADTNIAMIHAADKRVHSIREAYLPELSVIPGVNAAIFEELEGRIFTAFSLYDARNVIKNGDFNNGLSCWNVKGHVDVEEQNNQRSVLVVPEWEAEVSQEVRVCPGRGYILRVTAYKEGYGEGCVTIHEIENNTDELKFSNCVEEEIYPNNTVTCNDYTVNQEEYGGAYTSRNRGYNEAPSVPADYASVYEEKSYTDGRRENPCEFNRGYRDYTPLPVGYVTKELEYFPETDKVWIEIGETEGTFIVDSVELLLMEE

B1: anti-Cry1Ac nanobody Nb59 (VHH)
VHH: QVQLQESGGGLVQPGGSLRLSCAASGFTFRDYYMTWVRQAPGQGLEWVSSISFGGGRTYYADSVKGRFTISRDNPENTLYLQLSNLKTEDTAMYYCARGRPNADYDRRGQGTQVTVSS
- Kd [1]: 18 nM
- koff [2]: 0.00178 s⁻¹

B2: anti-Cry1Ac nanobody Nb58 (VHH)
VHH: QVQLQESGGGLVQPGGSLRLSCTASGFTFSSYEMDWFRRAPGKELEWVAGITSGGEGTSYRNSVKGRFTISRDNAKNTLYLHLNSLKNEDTAMYYCAKDRRALGEVGQGTQVTVSS
- Kd [1]: 23.2 nM
- koff [2]: 0.00151 s⁻¹

B3: anti-Cry1Ac nanobody Nb44 (VHH)
VHH: QVQLQESGGGSVQAGGSLRLSCATSGLTYSARITWFRQAPEKEREGVATFSTGSGSTGYADSVKGRFTISQDNAKNTLYLQMNNLKPEDTAMYYCAADTSTSWRDIVLVARYKYWGQGTQVTVSS
- Kd [1]: 6.89 nM
- koff [2]: 0.0014 s⁻¹

B4: anti-Cry1Ac nanobody Nb61 (VHH)
VHH: QVQLQESGGGSVQAGGSLRLSCEASENTYNSVYMAWFRQAPEKEREGVAVLSTGGGRTYYTDSVKGRFTISRDNAKNMVYLQMNSLKPDDTAMYYCAATYTGDSYGPSLYYLTPGRYEYWGQGTQVTVSS
- Kd [1]: 60.9 nM
- koff [2]: 0.00084 s⁻¹
